The record followed here is publication PMC2148140.

This experiment concerns the target human Erd2p (KDEL receptor) (human) (UniProt P24390). The experiment is described as follows: radioligand binding.
Chain of UniProt P24390 (P24390 whole entry): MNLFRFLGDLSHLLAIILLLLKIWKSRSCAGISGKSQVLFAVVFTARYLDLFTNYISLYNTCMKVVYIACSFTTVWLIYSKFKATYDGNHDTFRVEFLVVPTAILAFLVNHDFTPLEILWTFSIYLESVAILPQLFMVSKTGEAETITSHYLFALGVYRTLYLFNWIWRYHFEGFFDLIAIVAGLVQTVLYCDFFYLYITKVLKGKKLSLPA

With “cholera toxin A subunit (wild-type CTX-A), 125I-labelled (natural protein)”, the binding at pH 6 as percent of the binding at pH 5 worked out at 60%.
